First the molecules themselves.
B1: PB-2 (peptide)
peptide: RLLDTNRPYLWY
B2: L-peptide (peptide)
peptide: RLLDTNRPLLPY
notes: synthetic 12-mer, lead peptide; also called positive control
B3: PA-4 (peptide)
peptide: RLLDTNRPNLPY
B4: PB-1 (peptide)
peptide: RLLDTNRPFLWY
B5: PA-5 (peptide)
peptide: RLLDTNRPQLPY
B6: PA-1 (peptide)
peptide: RLLDTNRPWLPY
B7: PA-6 (peptide)
peptide: RLLDTNRPHLPY
B8: P-11 (peptide)
peptide: RLLDTNRPLLGY
B9: P-14 (peptide)
peptide: RLLDTNRPLLLY
B10: PB-3 (peptide)
peptide: RLLDTNRPLLPY-NH2

Where no end group is shown, it is not given here.

full-length recombinant human GRP78 (glucose-regulated protein 78), N-His tagged (human), sequence (P11021 19-654 limits assumed): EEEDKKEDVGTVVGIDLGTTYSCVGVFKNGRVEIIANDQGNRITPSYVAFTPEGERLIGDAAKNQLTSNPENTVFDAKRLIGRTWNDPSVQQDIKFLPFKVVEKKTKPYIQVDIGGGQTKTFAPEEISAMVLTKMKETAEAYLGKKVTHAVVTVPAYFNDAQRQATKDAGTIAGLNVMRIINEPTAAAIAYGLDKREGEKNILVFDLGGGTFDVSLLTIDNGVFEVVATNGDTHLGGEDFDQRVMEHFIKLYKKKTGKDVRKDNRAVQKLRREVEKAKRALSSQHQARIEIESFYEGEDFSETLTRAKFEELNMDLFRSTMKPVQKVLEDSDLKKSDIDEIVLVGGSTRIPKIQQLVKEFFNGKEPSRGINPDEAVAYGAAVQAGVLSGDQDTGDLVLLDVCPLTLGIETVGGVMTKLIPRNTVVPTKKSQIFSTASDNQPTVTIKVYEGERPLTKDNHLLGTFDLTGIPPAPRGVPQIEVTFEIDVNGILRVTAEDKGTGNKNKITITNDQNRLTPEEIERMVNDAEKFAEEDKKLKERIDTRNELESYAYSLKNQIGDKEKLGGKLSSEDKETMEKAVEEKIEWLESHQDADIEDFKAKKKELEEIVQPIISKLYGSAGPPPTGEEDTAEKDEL

The first experiment concerns the target full-length recombinant human GRP78 (glucose-regulated protein 78), N-His tagged (human) (UniProt P11021). In words: Biacore X SPR, 50 µM peptide over immobilised N-His GRP78; RU/MW normalised to L-peptide.
B1: the Binding index turned out to be 3.

The target in another experiment is T1, full-length recombinant human GRP78 (glucose-regulated protein 78), N-His tagged (human, UniProt P11021 19-654, limits assumed).
T1 construct: Immobilised on a Biacore NTA chip by Ni chelation plus amine coupling; also called His-tagged GRP78; human glucose-regulated protein 78; not shown: N-terminal His tag
T1 sequence (P11021 19-654 limits assumed): as above
The description is as above. As to the method: The chip NTA and HBS-P buffer were obtained from GE Healthcare. Sensor chip NTA was prepared by combining Ni-ion chelation and covalent immobilization of N-His tagged GRP78 via amine-coupling with nitrilotriacetic acid on chip NTA (FIG. 6). To immobilize GRP78 protein on sensor chip for peptide-binding assay using Biacore, the methods based on Ni-ion chelation and amine coupling reaction were combined. Sensor chip NTA was prepared by chelation followed by covalent immobilization of N-His-tagged GRP78 via amine-coupling at the nitrilotriacetic acid group on chip NTA. The sensor chip NTA, HBS-P buffer and amine coupling kits were all obtained from GE Healthcare. First, the activation of chip surface using EDC and NHS reagents for amine coupling were according to the standard procedure from manufacturer's instruction. Additionally, one-minute pulse of NiCl₂ solution (500 μM) was used to attract His-tagged GRP78 to the surface of sensor chip and formed covalent bond subsequently in the condition of HBS-P buffer (pH 7.4). The resulting differences of RU were about 5,000˜6,000 RU. After de-activation by ethanolamine and washed with EDTA (3 mM), the prepared sensor chip was then applied to Biacore X for binding assay. The HBS-P buffer containing 1 mM Gly was used as running buffer for binding assay. Solution of 20 mM sodium hydroxide dissolved in running buffer was used to regenerate the chip surface by one-minute pulse.
The sensor chip thus prepared was applied to Biacore X for determining the binding between the peptides and GRP78. The HBS-P buffer containing 1 mM Gly was used as a running buffer. A solution of 20 mM sodium hydroxide dissolved in the running buffer was used to regenerate chip surface by 1-minute pulses.
Take B2: the Binding index was found to be 1.
On to B3, for which the Binding index amounted to 0.31.
Regarding B4, the Binding index was 1.6.
Still for that read-out and setting: the same measure for B5: 0.3; for B6: 0.35; for B7: 0.47.
In the case of B8, the Binding index was 0.77.
Take B9: the Binding index came out at 0.21.
Still for that read-out and setting: the same measure for B10: 1.15.

(Values after patent US20160321394A1 (ACADEMIA SINICA, published 2016).)
